From PMC6996649, “Rational Engineered C-Acyltransferase Transforms Sterically Demanding Acyl Donors” (ACS Catalysis, 2019) come the findings set out here.

Substrate in the data set: CC(=O)c1c(O)cc(O)cc1O
The data set can be described thus: purified protein. The conditions noted are these: disproportionation to DAPG, 100 mM potassium phosphate pH 7.5, 35 °C. Type of data set: biochemical, Pseudomonas protegens.

B1: PpATaseCH (Pseudomonas protegens Pf-5) (protein)
chain: MCARRVAIVSAAYTPKPGSSRVRQTFKEMIVESAYKALKDAKMHPREIQAVAYGYHGEGISEYGGLGPTISDALGISPAPTFMSTANCTSSSVSFQMGHQMVASGEYDIVLCGGFEKMTDHFNYAEYIGSSTECEYDYFLGISHTDAFALATAEYFQKFGYAGREADVLATFGRQMRIYAQNTPTATRYGQPIPSLEVLKNSEACGSMLAWGEASGCAILVAEHLAHKYTDKPVFVRGCAYTGVSHYFGTRFHNPTLHHPGLPKDVGMAVSANSIACAEIAYKKAGITAKDIDVAQVYDLLGAGLIQMESMGICGKGQAGDFVLEGGIALDGQLPLNTDGGNIGRGHASGCDGILHITELFRQLRGESDNQVKGARIGVSQNLGGYAAHNSVIVLSND
notes: PhlABC multi-subunit acyltransferase from codon-harmonized construct, recombinant in E. coli, purified enzyme; with 2,4-diacetylphloroglucinol biosynthesis acyltransferase subunit PhlA; 2,4-diacetylphloroglucinol biosynthesis acyltransferase subunit PhlB
With B1, the Km (usually the concentration of substrate that gives half-maximal velocity) came to 290 ± 40 µM; the Vmax (as a rule, the top rate of the reaction or transport when substrate is in excess) came to 4830 µM/min; the kcat (usually the maximal rate divided by the concentration of active sites) was 72 ± 8 s⁻¹; the kcat/Km (usually the turnover number divided by the Michaelis constant) amounted to 251000 ± 15000 M⁻¹ s⁻¹.
